From USRE47150 (Bayer, dated 2018)
Numbering of substitutions follows the chain as printed. Names and notes keep the numbering of the source.

T1: human tissue factor pathway inhibitor (TFPI) (human, UniProt P10646 29-304, limits assumed)
T1 construct: bought; also called hTFPI; human TFPI
T1 sequence (looked up): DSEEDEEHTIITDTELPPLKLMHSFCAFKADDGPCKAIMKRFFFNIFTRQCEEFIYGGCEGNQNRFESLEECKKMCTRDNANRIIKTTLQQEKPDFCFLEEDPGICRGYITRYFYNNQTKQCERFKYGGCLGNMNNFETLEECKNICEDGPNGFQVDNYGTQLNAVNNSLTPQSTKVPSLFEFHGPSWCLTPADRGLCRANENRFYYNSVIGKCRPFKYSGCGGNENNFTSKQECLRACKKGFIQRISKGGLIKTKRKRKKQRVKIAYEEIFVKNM

T2: mouse tissue factor pathway inhibitor (TFPI) (mouse, UniProt O54819 29-289, limits assumed)
T2 construct: bought; also called mTFPI; murine TFPI
T2 sequence (looked up): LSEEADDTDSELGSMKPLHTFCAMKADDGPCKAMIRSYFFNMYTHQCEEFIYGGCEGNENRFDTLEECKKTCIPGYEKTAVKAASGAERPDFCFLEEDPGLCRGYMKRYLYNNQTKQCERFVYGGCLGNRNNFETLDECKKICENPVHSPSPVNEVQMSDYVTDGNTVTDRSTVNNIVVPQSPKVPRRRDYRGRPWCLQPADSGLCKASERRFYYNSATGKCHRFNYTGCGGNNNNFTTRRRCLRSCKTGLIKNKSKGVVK

B1: 4B7 HC N32D+D62R+H107M+Y112D/LC S32R+N35T (Fab, V domains shown)
VH: QVQLQQSGPGLVKPSQTLSLTCAISGDSVSSDSAAWSWIRQSPGRGLEWLGIIYKRSKWYNRYAVSVKSRITINPDTSKNQFSLQLNSVTPEDTAVYYCARWHSDKMWGFDDWGQGTLVTVSS
VL: DIVMTQSPLSLPVTPGEPASISCRSSQSLVFRDGTTYLNWYLQKPGQSPQLLIYKGSNRASGVPDRFSGSGSGTDFTLKISRVEAEDVGVYYCQQYDSYPLTFGQGTKVEIKR
B2: 4B7 HC N32D+G44S+D62R+Y112D/LC S32R+D33F+N35I+D97T (Fab, V domains shown)
VH: B1 VH with G44S, M107H
VL: B1 VL with D33F, T35I, D97T
B3: 4B7 HC N32D+D62R+Y112D/LC S32R+D33R (Fab, V domains shown)
VH: B1 VH with M107H
VL: B1 VL with D33R, T35N
B4: 4B7 HC N32D+D62R+Y112D/LC F31Y+S32R+D33F+N35I+D97T (Fab, V domains shown)
VH: B1 VH with M107H
VL: B1 VL with F31Y, D33F, T35I, D97T
B5: 4B7 HC Q1E+N32D+D62R+Y112D/LC S32R+D33F+N35I+D97T (Fab, V domains shown)
VH: B1 VH with Q1E, M107H
VL: B1 VL with D33F, T35I, D97T
B6: 4B7 HC N32D+D62S+H107M+Y112D/LC S32R+D33R+N35T (Fab, V domains shown)
VH: B1 VH with R62S
VL: B1 VL with D33R
B7: 4B7 HC Q1E+N32D+G44S+K55Y+D62R+Y112D/LC V30L+S32R+D33F+N35I+T36N+D97T (Fab, V domains shown)
VH: B1 VH with Q1E, G44S, K55Y, M107H
VL: B1 VL with V30L, D33F, T35I, T36N, D97T
B8: 4B7 HC N32D+D62R+H107M+Y112D/LC S32R+N35T+D97T (Fab, V domains shown)
VH: B1 VH
VL: B1 VL with D97T
B9: 4B7 HC N32D+D62R+Y112D/LC M4L+S32R+D33F+N35I+D97T (Fab, V domains shown)
VH: B1 VH with M107H
VL: B1 VL with M4L, D33F, T35I, D97T
B10: 4B7 HC N32D+D62R+Y112D/LC D33F+N35I+D97T (Fab, V domains shown)
VH: B1 VH with M107H
VL: B1 VL with R32S, D33F, T35I, D97T
B11: 4B7 HC N32D+D62R+Y112D/LC F31H+S32R+D33F+N35I+D97T (Fab, V domains shown)
VH: B1 VH with M107H
VL: B1 VL with F31H, D33F, T35I, D97T
B12: 4B7 HC N32D+K55Y+D62Q+Y112D/LC F31I+D33F+N35I (Fab, V domains shown)
VH: B1 VH with K55Y, R62Q, M107H
VL: B1 VL with F31I, R32S, D33F, T35I
B13: 4B7 HC N32D+D62R+Y112D/LC M4I+S32R+D33F+N35I+D97T (Fab, V domains shown)
VH: B1 VH with M107H
VL: B1 VL with M4I, D33F, T35I, D97T
B14: 4B7 HC N32D+D62R+Y112D/LC F31I+D33F+N35I+D97T (Fab, V domains shown)
VH: B1 VH with M107H
VL: B1 VL with F31I, R32S, D33F, T35I, D97T
B15: 4B7 HC N32D+D62R+Y112D/LC S32R+D33F+N35I+N39D+D97T (Fab, V domains shown)
VH: B1 VH with M107H
VL: B1 VL with D33F, T35I, N39D, D97T
B16: 4B7 HC Q1E+N32D+G44S+K55Y+D62R+Y112D/LC V30L+S32R+N35I+T36N (Fab, V domains shown)
VH: B1 VH with Q1E, G44S, K55Y, M107H
VL: B1 VL with V30L, T35I, T36N
B17: 4B7 HC N32D+D62R+Y112D/LC S32R+D33F+N35I+K44R+D97T (Fab, V domains shown)
VH: B1 VH with M107H
VL: B1 VL with D33F, T35I, K44R, D97T
B18: 4B7 HC N32D+D62R+H107M/LC S32R+D33R+N35I (Fab, V domains shown)
VH: B1 VH with D112Y
VL: B1 VL with D33R, T35I
B19: 4B7 HC N32D+D62R+Y112D/LC V30L+S32R+D33F+N35I+T36N+D97T (Fab, V domains shown)
VH: B1 VH with M107H
VL: B1 VL with V30L, D33F, T35I, T36N, D97T
B20: 4B7 HC N32D+I53T+D62Q+Y112D/LC F31I+D33F+N35I (Fab, V domains shown)
VH: B1 VH with I53T, R62Q, M107H
VL: B1 VL with F31I, R32S, D33F, T35I
B21: 4B7 HC N32D+S37N+D62R+Y112D/LC S32R+D33F+N35I+D97T (Fab, V domains shown)
VH: B1 VH with S37N, M107H
VL: B1 VL with D33F, T35I, D97T
B22: 4B7 HC N32D+D62R+Y112D/LC S32R+D33F+N35I+D97T+S98H (Fab, V domains shown)
VH: B1 VH with M107H
VL: B1 VL with D33F, T35I, D97T, S98H
B23: 4B7 HC N32D+D62R+Y112D/LC S32R+D33F+N35I+K55L+D97T (Fab, V domains shown)
VH: B1 VH with M107H
VL: B1 VL with D33F, T35I, K55L, D97T
B24: 4B7 HC Q1E+N32D+G44S+K55Y+D62R+Y112D/LC S32R+D33F+N35I+D97T (Fab, V domains shown)
VH: B1 VH with Q1E, G44S, K55Y, M107H
VL: B1 VL with D33F, T35I, D97T
B25: 4B7 HC N32D+I53T+D62R+Y112D/LC S32R+D33F+N35I+D97T (Fab, V domains shown)
VH: B1 VH with I53T, M107H
VL: B1 VL with D33F, T35I, D97T
B26: 4B7 HC N32D+D62R+Y112D/LC S32R+D33F+N35I+L51R+D97T (Fab, V domains shown)
VH: B1 VH with M107H
VL: B1 VL with D33F, T35I, L51R, D97T
B27: 4B7 HC N32D+D62R+Y112D/LC S32R+D33F+N35I+T36N+D97T (Fab, V domains shown)
VH: B1 VH with M107H
VL: B1 VL with D33F, T35I, T36N, D97T
B28: 4B7 HC N32D+D62R+Y112D/LC S32R+D33F+N35I+A60D+D97T (Fab, V domains shown)
VH: B1 VH with M107H
VL: B1 VL with D33F, T35I, A60D, D97T
B29: 4B7 HC N32D+D62R+Y112D/LC F31M+S32R+D33R+N35I (Fab, V domains shown)
VH: B1 VH with M107H
VL: B1 VL with F31M, D33R, T35I
B30: 4B7 HC N32D+D62R+Y112D/LC V30L+S32R+D33F+N35I+D97T (Fab, V domains shown)
VH: B1 VH with M107H
VL: B1 VL with V30L, D33F, T35I, D97T
B31: 4B7 HC N32D+D62R+Y112D/LC V30L+S32R+N35I+T36N (Fab, V domains shown)
VH: B1 VH with M107H
VL: B1 VL with V30L, T35I, T36N
B32: 4B7 HC N32D+D62R+Y112D/LC S32R+D33F+N35I+L42Q+D97T (Fab, V domains shown)
VH: B1 VH with M107H
VL: B1 VL with D33F, T35I, L42Q, D97T
B33: 4B7 HC N32D+D62R+Y112D/LC S32R+D33F+N35I+G56V+D97T (Fab, V domains shown)
VH: B1 VH with M107H
VL: B1 VL with D33F, T35I, G56V, D97T
B34: 4B7 HC N32D+D62R+Y112D/LC S32R+D33F+N35I+Q50R+D97T (Fab, V domains shown)
VH: B1 VH with M107H
VL: B1 VL with D33F, T35I, Q50R, D97T
B35: 4B7 HC N32D+D62R+Y112D/LC D33R+N35I (Fab, V domains shown)
VH: B1 VH with M107H
VL: B1 VL with R32S, D33R, T35I
B36: 4B7 HC N32D+K55Y+D62R+Y112D/LC S32R+D33F+N35I+D97T (Fab, V domains shown)
VH: B1 VH with K55Y, M107H
VL: B1 VL with D33F, T35I, D97T

The binders below were run against T1, human tissue factor pathway inhibitor … (assay: competitive ELISA).

variant/HC_D62R | Binder
25.3 ratio | B1
26.5 ratio | B2
14.8 ratio | B3
27.9 ratio | B4
26.7 ratio | B5
19.6 ratio | B6
20.4 ratio | B7
27.7 ratio | B8
21.3 ratio | B9
25.5 ratio | B10
22.1 ratio | B11
25.6 ratio | B12
19.3 ratio | B13
23.3 ratio | B14
1.3 ratio | B15
23 ratio | B16
26 ratio | B17
12.9 ratio | B18

variant/HC_D62R | Binder
23.9 ratio | B19
5.7 ratio | B20
1.9 ratio | B21
17.9 ratio | B22
7.8 ratio | B23
26.3 ratio | B24
19.6 ratio | B25
11.2 ratio | B26
25.2 ratio | B27
19.1 ratio | B28
15.8 ratio | B29
26.1 ratio | B30
25 ratio | B31
26.9 ratio | B32
12.1 ratio | B33
25.9 ratio | B34
22.9 ratio | B35
25.6 ratio | B36

The binders below were run against T2, mouse tissue factor pathway inhibitor … (assay: competitive ELISA).

variant/HC_D62R | binding result | Binder
29.3 ratio | – | B1
41.5 ratio | – | B2
7.2 ratio | – | B3
39.7 ratio | – | B4
39.8 ratio | – | B5
20.3 ratio | – | B6
29.4 ratio | – | B7
15.8 ratio | – | B8
23.9 ratio | – | B9
15.9 ratio | – | B10
15.2 ratio | – | B11
26.2 ratio | – | B12
12 ratio | – | B13
11.9 ratio | – | B14
– | no binding | B15
9.9 ratio | – | B16
40.1 ratio | – | B17
16.1 ratio | – | B18

variant/HC_D62R | binding result | Binder
28.4 ratio | – | B19
– | no binding | B20
– | no binding | B21
7.1 ratio | – | B22
– | no binding | B23
45.1 ratio | – | B24
8.3 ratio | – | B25
5.2 ratio | – | B26
35.4 ratio | – | B27
14.3 ratio | – | B28
11.2 ratio | – | B29
42.2 ratio | – | B30
7 ratio | – | B31
43 ratio | – | B32
– | no binding | B33
39.4 ratio | – | B34
19.5 ratio | – | B35
42.8 ratio | – | B36
